# Experimental data reported in the nanobody polyreactivity screen of Harvey et al. (2022).
# Test: yeast display, Sf9 membrane polyspecificity reagent, FACS + sequencing; frameworks hold sequencing errors
# How it was run: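 Polyreactivity labels are assigned by the sorting gate from which each nanobody was recovered. The gates were low and high (top ~1%), set on anti-HA fluorescence for expression and streptavidin fluorescence for reagent binding. Before sorting, galactose-induced (36–48 hours) yeast display cells were stained for 1 hour at 4 °C with 10% biotinylated, detergent-solubilized Sf9 membrane reagent.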
row,Sequence,polyreactivity (PSR sort gate)
1,QVQLVESGGGLVQAGGSLRLSCAASGSTFPHNAMGWYRQAPGKERELVAAISVGGGSSHYADSVKGRFTISRDNAKNNVYLQMNSLKPEDTAVYYCAKDYAYQYSFVTYDYWGQGTQVTVSS,low polyreactivity
2,QVQLVESGGGLVQAGGSLRLSCAASGSTFPHYAMGWYRQAPGKERELVAAISVRGGRTYYADSVKGRFTISRDNAKNTVYLQMNSLKPEDTAVYYCNKYYYFTKYGYWGQGTQVTVSS,high polyreactivity
3,QVQLVESGGGLVQAGGSLRLSCAASGSTFPHYAMGWYRQAPGKERELVAAISWSGSSTYYADSVKGRFTISRDNAKNTVYLQMNSLKPEDTAVYYCNKLPRRAPQFTYDYWGQGTLVTVSS,high polyreactivity
4,QVQLVESGGGLVQAGGSLRLSCAASGSTFPHYAMGWYRQAPGKERELVAAISWSGSSTYYADSVKGRFTISRDNAKNTVYLQMNSLKPEDTAVYYCNKLPRRAPQFTYDYWGQGTQVTVSS,high polyreactivity
5,QVQLVESGGGLVQAGGSLRLSCAASGSTFPIYAMGWYRQAPGKERELVAAITWRGGSRTYYADSVKGRFTISRDNAKNTVYLQMNSLKPEDTAVYYCAAEYQWPLYGYWGQGTQVTVSS,low polyreactivity
6,QVQLVESGGGLVQAGGSLRLSCAASGSTFPKNAKGWYRPAPGKERELVAAINTGGSTYYADSVKGRFTISRDNAKNTVYLQMNSLKPEDTAVYYCAARDNYHRDVGHPYDYWGQGTQVTVSS,low polyreactivity
7,QVQLVESGGGLVQAGGSLRLSCAASGSTFPKYAMGWYRQAPGKERELVAGISWRGGRTYYADSVKGRFTISRDNAKNTVYLQMNSLKPEDTAVYYCATDYYAFNQGEVKWYDYWGQGTQVSVSS,high polyreactivity
8,QVQLVESGGGLVQAGGSLRLSCAASGSTFPKYAMGWYRQAPGKERELVASISVTTGSTYYADSVKGRFTISRDNAKITVYLQMNSLKPEDTAVYYCAKYRPGIPYYQYGSWGQGTQVTVSS,high polyreactivity
9,QVQLVESGGGLVQAGGSLRLSCAASGSTFPLYAMGWYRQAPGKERELVAAITGGGGRTYYADSVKGRFTISRDNAKNTVYLQMNSLKPEDTAVYYCATDSFGYDWYWGQGTQVTVSS,low polyreactivity
10,QVQLVESGGGLVQAGGSLRLSCAASGSTFPLYAMGWYRQAPGKERELVAAITSGGGNTYYADSVKGRFTISRDNAKNTVYLQMNSLKPEDTAVYYCAAVGGYKSYYSYEYDYWGQGTQVTVSS,low polyreactivity
11,QVQLVESGGGLVQAGGSLRLSCAASGSTFPLYTRGWYRQAPGKERELVAAISGGSTTYYADSVKGRFTISRDNAKNTVYLQMNSLKPEDTAVYYCAAYAYTSRWYGFDYWGQGTQVTVSS,low polyreactivity
12,QVQLVESGGGLVQAGGSLRLSCAASGSTFPPNAMGWSRQAPGKERELVAAISERGGSTYYADSVKGRFTISRDNAKNTVYLQMNSLKPEDTAVYYCAVDYYYLMYWGQGTQVTVSS,low polyreactivity
13,QVQLVESGGGLVQAGGSLRLSCAASGSTFPPNTMGWYRQAPGKERELVAAITQRGGNTYYADSVKGRFTISRDNAKNTVYLQMNSLKPEDTAVYYCATRYRYKGYYGQYEYWGQGTQVTVSS,high polyreactivity
14,QVQLVESGGGLVQAGGSLRLSCAASGSTFPRNDMGWYRQAPGNERELVAAISRGGSTNYADSVKGRFTISRDNANNTVYLQMNSMKPEDTAVYYCAAQIFESAYGMDYWGQGTQVTVSS,low polyreactivity
15,QVQLVESGGGLVQAGGSLRLSCAASGSTFPRYAMAWYRQAPGKERELVAAISSSGRTYYADSVKGRFTISRDNAKNTFYLQMNSLKPEDTAVYYCNAPVARGEASYYWGQGTQVTVSS,high polyreactivity
16,QVQLVESGGGLVQAGGSLRLSCAASGSTFPRYAMGWYRQAPGKEREFVAAISRRGGSTYYADSVKGRFTISRDNAKNTVYLQMNSLKPEDTAVYYCAKYLPTRVWGTGRFDYWGQGTQVTVSS,high polyreactivity
17,QVQLVESGGGLVQAGGSLRLSCAASGSTFPRYAMGWYRQAPGKERELVAAISGRGGSTYYADSVKGRFTISRDYAKNTVYLQMNSLKPEDTAVYYCNAYRRYYTMYYWGQGTQVTVSS,high polyreactivity
18,QVQLVESGGGLVQAGGSLRLSCAASGSTFPSNAMGWYRQAPGKERELVAAISRGGGTTYYADSVKGRFTISRDNAKNTVYLQMNSLKPEDTAVYYCATRGSVGWFDGGGYWGQGTQVTVSS,high polyreactivity
19,QVQLVESGGGLVQAGGSLRLSCAASGSTFPSNAMGWYRQAPGKERELVAAISRSGGSTNYADSVKGRFTISRDNAKNTVYLQMNSLKPVDTAVYYCKADLGRATFYQRVFIERGGYWGQGTQVTVSS,low polyreactivity
20,QVQLVESGGGLVQAGGSLRLSCAASGSTFPSNAMGWYRQAPGKERELVAAISRSGGSTYYADSVKGRFTISRDNAKNTVYLQMNSLKPEDTAVYFCAVQVRPNSGGTRIHRGGYDYWGQGTQVTVSS,low polyreactivity
21,QVQLVESGGGLVQAGGSLRLSCAASGSTFPSYAMGWYRQAPGKESELVAAITNGGSTTYADSVKGRFTISRDNAKNTVYLQMNSLKPEDTAVYYCAARYYYYYYYIRRDYWGQGTQVTVSS,low polyreactivity
22,QVQLVESGGGLVQAGGSLRLSCAASGSTFPTNAMGWYRQAPGKERELVADINGNGGRTYYADSVKGRFTISRDNAKNTVYLQMNSLKPEDTAVYYCAVEPDVYPSWYYYVDYDYWGQGTQVTVSS,low polyreactivity

row,Sequence,polyreactivity (PSR sort gate)
1,QVQLVESGGGLVQAGGSLRLSCAASGSTFPTYAMGWYRPAPGKERELVAAITRGGRTYYADSVKGRFTISRDNAKNTVYLQMNSLKPEDTAVYYCAAVYYGAAQYNYWGQGTQVTVSS,high polyreactivity
2,QVQLVESGGGLVQAGGSLRLSCAASGSTFPTYAMGWYRQAPGKERELVAAITWSGGSTYYADSVKGRFTISRDNAKNTVYLLMNSLKPEDTAVYYCAKSTGYGRRQKRYDWGQGSQVTVSS,high polyreactivity
3,QVQLVESGGGLVQAGGSLRLSCAASGSTFPVNAKGWYRPAPGKERQLVATIRWTGGGTYYADSVKGRFTISRDNAKNTVYLQMNSLKPEDTAVYYCAADPPWEWSDYGYDYWGQGTQVTVSS,low polyreactivity
4,QVQLVESGGGLVQAGGSLRLSCAASGSTFPVYAMGWYRQAPGKERELVAAITSGGSTYYADSVKGRFTISRDNAKNTVYLQMNSLKPEDTAVYYCAAEDSSPAYNHWGHGTQVTVSS,low polyreactivity
5,QVQLVESGGGLVQAGGSLRLSCAASGSTFPWYDMGWYRQAPGKERELVADISGGTRTYYADSVKGRFTISRDNAKNTVYLQMNSLKPEDTAVYYCAVGYYWNEPLYWYGDFDYWGQGTQVTVSS,high polyreactivity
6,QVQLVESGGGLVQAGGSLRLSCAASGSTFPYNAMGWYRQAPGKERELVAAISWSGGRTYYADSVKGRFTISRDNAKNTVYLQMNSLKPEDTAVDYCAKAVKQYGFYYWGQGTQVTVSS,high polyreactivity
7,QVQLVESGGGLVQAGGSLRLSCAASGSTFPYNAMGWYRQAPGKERELVAAITGRGGSTYYADSVKGRFTISRDNAKNTVYLQMNSLKPEDTAVYYCAARYLYLLYYWGQGTQVTVSS,high polyreactivity
8,QVQLVESGGGLVQAGGSLRLSCAASGSTFPYNTMGSYIQAPGKESELVATIRSRGDSTYFADSVKGRFTISRDNAKNTVYFQMNSLKPEDTAFYYCNADPRTLWWSRPYYSWGQGTQVTVSS,high polyreactivity
9,QVQLVESGGGLVQAGGSLRLSCAASGSTFPYYAMGWYRQAPGKERELVAAITSSASTYYADSVKGRFTISRDNAKNTVYLQLNSPKPEDTADYYCPVRSPYRLSPWRVGYWGQGTQVTVSS,high polyreactivity
10,QVQLVESGGGLVQAGGSLRLSCAASGSTFQFYAMGWYRQAPGKERELVAAIRSSDDSTYYADSVKGRFTSSRDNAKNTVYLQMNSLKPEDTAVYYCAAVQDYYGVWYDYWGQGTQVTVSS,high polyreactivity
11,QVQLVESGGGLVQAGGSLRLSCAASGSTFQFYAMGWYRQAPGKERELVAVITSGDDTNYADSVKGRFTISRDNAKNTVYLQMNSLKPEDTAVYYCAVEYILVYTRVRSYWFDYWGQGTQVTVSS,low polyreactivity
12,QVQLVESGGGLVQAGGSLRLSCAASGSTFQGYAMGWYRQAPGKERELVAAINYSGGSTYYADSVKGRFTISRDNAKNTVYFQMNSLKPEDTAVYYCAVKLRSRAVTSYGYWGQGTQVTVSS,high polyreactivity
13,QVQLVESGGGLVQAGGSLRLSCAASGSTFQGYAMGWYRQAPGKERELVARISYTGASTYADSVKGRFTISRDNAKNTVYLQMNSLKPDDTAVYYCNAGGYRYRSYDYWGQGTQVTVSS,high polyreactivity
14,QVQLVESGGGLVQAGGSLRLSCAASGSTFQLYAMGWYRQAPGKERELVAAISGIGDSTYYADSVKGRFTISRDNAKNTVYLQMNSLKPEDTAVYYCAREFSDGLSGKFDYWGHGTQVTVSS,low polyreactivity
15,QVQLVESGGGLVQAGGSLRLSCAASGSTFQLYAMGWYRQAPGKESELVASISWSGGSTYYADSVKGRFTISRDNAKNTVYLQMNSLKPEDTAVYYCAADSRLYLRDDYWGQGTQVTVSS,low polyreactivity
16,QVQLVESGGGLVQAGGSLRLSCAASGSTFQPNAMGWYRQAPGKERELVAAISKSDGRTYYADSVKGRFTISRDNAKNTVYLQMNSLQPEDTAVYNCAADAYWEPKVGFSLFDYWGQGTQVTVSS,low polyreactivity
17,QVQLVESGGGLVQAGGSLRLSCAASGSTFQPYAMGWYRQAPGKERELVAAITFSGGSTYYADSVKGRFTISRDNAKNTVYLQMNSLKPEDTAVYYCAAYRRPDYGSWGQGTQVTVSS,high polyreactivity
18,QVQLVESGGGLVQAGGSLRLSCAASGSTFQSKAMGWYRQAPGKERELVAAINSGTSTYYADSVKGRFTISRDNAKNTVYLQMNSLKPEDTAVYYCAADGIWGEYYYSELGDYDYWGQGTQVTVSS,low polyreactivity
19,QVQLVESGGGLVQAGGSLRLSCAASGSTFQSYAMGRYRQAPGKERELVAAISFSGGSTYYADSVKGRFTISRDNAKNTVYLQMNSLKPEDTAVYYCAKRGWVYFHGYDYWGQGTQVTVSS,low polyreactivity
20,QVQLVESGGGLVQAGGSLRLSCAASGSTFQSYAMGWYRQAPGKERELVAAIDIGDSTYYADSVKGRYTISRDNAKNTVYLQMNSLKPEDTAVYYCAADDEDVLFDYWGQGTQVTVSS,low polyreactivity
21,QVQLVESGGGLVQAGGSLRLSCAASGSTFQSYAMGWYTQAPGKERELVAAISARGGTTYYADSVKGRFTISRDNAKNTVYLQMNSLKPEDTAVYYCAAEWDTNFWYDYWGQGTQVTVSS,low polyreactivity
